This assay deals with human CD33 extracellular region F21L (human, UniProt P20138 22-259). The assay is described as follows: BLI Octet, IgG captured on AHC, CD33 analyte.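 Further: CD33 variants and wild type run as analyte at 5, 50 and 500 nM, 700 s association then 1200 s dissociation, buffer-only reference subtracted, global 1:1 fit.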
human CD33 extracellular region F21L, sequence (P20138 other isoform, or with tags, fused parts or gaps F21L F21L): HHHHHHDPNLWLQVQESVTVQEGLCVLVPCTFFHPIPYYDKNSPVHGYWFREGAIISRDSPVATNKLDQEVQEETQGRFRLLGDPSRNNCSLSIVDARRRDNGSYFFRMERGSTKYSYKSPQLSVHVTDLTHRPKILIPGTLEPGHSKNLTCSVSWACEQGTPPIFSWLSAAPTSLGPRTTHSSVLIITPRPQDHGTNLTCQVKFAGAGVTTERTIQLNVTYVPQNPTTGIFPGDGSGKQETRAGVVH

B1: Refmab #4 (antibody, human IgG1, V domains shown)
VH: QVQLVQSGAEVKKPGESVKVSCKASGYTFTNYGMNWVKQAPGQGLEWMGWINTYTGEPTYADKFQGRVTMTTDTSTSTAYMEIRNLGGDDTAVYYCARWSWSDGYYVYFDYWGQGTSVTVSS
VL: DIVMTQSPDSLTVSLGERTTINCKSSQSVLDSSTNKNSLAWYQQKPGQPPKLLLSWASTRESGIPDRFSGSGSGTDFTLTIDSPQPEDSATYYCQQSAHFPITFGQGTRLEIK
Take B1: the “% WT binding” value stood at 109%.

B2: Refmab #3 (antibody, human IgG1, V domains shown)
VH: QVQLVQSGAEVKKPGSSVKVSCKASGYTFTDYNMHWVRQAPGQGLEWIGYIYPYNGGTGYNQKFKSKATITADESTNTAYMELSSLRSEDTAVYYCARGRPAMDYWGQGTLVTVSS
VL: DIQMTQSPSSLSASVGDRVTITCRASESVDNYGISFMNWFQQKPGKAPKLLIYAASNQGSGVPSRFSGSGSGTDFTLTISSLQPDDFATYYCQQSKEVPWTFGQGTKVEIK
B2: the “% WT binding” value came to 0%.

For the origin of these results see patent US20260242735A1 (UNIVERSIT T BASEL, published 2026).
